Stoichiometry N data for one molecule are collected here from paper PMC10198640.

This test addresses T1, recombinant soluble form of the extracellular domain of DC-SIGN, Q9NNX6.
T1 chain: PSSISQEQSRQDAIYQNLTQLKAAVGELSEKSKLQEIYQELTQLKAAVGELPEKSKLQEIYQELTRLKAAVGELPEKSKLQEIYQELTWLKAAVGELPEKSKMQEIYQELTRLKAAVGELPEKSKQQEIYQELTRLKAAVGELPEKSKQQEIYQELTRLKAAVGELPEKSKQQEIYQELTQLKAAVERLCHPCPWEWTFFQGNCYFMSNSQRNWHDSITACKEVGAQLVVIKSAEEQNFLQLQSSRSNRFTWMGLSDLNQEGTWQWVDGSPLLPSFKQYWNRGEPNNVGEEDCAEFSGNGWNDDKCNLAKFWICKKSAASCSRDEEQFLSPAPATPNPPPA
The test is described as follows: native gel or EMSA; denaturing and nondenaturing polyacrylamide gel electrophoresis of the refolded, purified protein (fig. S2, A and B). The following applies: remark: other sources report otherwise. Background: A gel shift assay detects complexes by their altered migration in electrophoresis.

B1: recombinant soluble form of the extracellular domain of DC-SIGN, Q9NNX6 64-404 (domain or fragment)
chain: T1 chain
Broadly, the stoichiometry N is a count of units in the complex or per binding partner. Turning to B1, the stoichiometry N is 4.
